Source: paper PMC7253548

Target: OsHsfB4d (Oryza sativa (rice; cv. Zhonghua 11?)) (UniProt Q10KX8)
Assay: EMSA
Conditions: room temperature 20 min, buffer

OsHsfB4d (Oryza sativa (rice; cv. Zhonghua 11?)), sequence (Q10KX8 whole entry): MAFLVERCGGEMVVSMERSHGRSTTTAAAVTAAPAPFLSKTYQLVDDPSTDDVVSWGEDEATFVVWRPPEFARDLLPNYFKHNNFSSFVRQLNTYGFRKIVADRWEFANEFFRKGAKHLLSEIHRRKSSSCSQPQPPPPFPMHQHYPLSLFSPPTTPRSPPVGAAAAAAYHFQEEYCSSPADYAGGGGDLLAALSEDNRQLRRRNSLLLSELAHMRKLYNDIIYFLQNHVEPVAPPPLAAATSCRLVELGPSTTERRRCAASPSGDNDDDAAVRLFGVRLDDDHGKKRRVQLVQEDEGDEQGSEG

With “CGTCGGAATAGCTGCGAATTTGGAGGTGGAACGATCGGACTTCTCTGAGTTCTTACTCTGATGTTTGCTTGGTTTGCTTTGCGTTTTCTTCGTGGTTCTGCCGGTGAAGGGGAGCGCGGTTTTATAGAGGGCAGCGAGAGGGCATCGTGGAGCTTGGAATAAGCTTCTAGAAACTTCCAGTTTGCCCCCGCATGGGCTAGAACCTAGTACGAGATAGCTTGGGCTAGAAGTTTACACCACCGGTAGCGGGGTGGGCTGTAGCCCATAGCGTCCAG (double strand)” the binding was “binds”.
